According to paper PMC10414051, “FOXP1-GINS1 axis promotes DLBCL proliferation and directs doxorubicin resistance”:

T1: FOXP1 (recombinant, pET28a) (UniProt Q9H334 1-677)
T1 sequence: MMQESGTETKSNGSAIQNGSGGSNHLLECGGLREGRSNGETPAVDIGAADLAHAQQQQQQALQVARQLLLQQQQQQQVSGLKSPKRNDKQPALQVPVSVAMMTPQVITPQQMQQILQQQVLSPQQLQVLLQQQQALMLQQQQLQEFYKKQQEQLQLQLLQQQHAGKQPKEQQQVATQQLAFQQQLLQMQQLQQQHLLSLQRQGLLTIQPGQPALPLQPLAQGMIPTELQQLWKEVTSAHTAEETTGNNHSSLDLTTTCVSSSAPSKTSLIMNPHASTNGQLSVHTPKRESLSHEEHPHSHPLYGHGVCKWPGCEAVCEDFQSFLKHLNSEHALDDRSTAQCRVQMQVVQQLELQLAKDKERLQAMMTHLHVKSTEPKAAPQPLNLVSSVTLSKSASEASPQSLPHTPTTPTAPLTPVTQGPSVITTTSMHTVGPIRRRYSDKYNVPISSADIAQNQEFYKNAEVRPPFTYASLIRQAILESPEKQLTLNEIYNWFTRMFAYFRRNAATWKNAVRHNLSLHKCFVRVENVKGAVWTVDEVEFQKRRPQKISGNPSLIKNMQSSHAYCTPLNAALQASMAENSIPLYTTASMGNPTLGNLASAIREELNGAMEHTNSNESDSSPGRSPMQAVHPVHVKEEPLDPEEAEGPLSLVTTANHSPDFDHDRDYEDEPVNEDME

B1: Probe B (GINS1 promoter FOXP1 site B) (dsDNA)
DNA 1: AGCTCAAGAGTTGTCGACCAGACTG
DNA 2: CAGTCTGGTCGACAACTCTTGAGCT
B2: Probe A (GINS1 promoter FOXP1 site A) (dsDNA)
DNA 1: TCAAAAAGGCAATGTTTGCTGGGTG
DNA 2: CACCCAGCAAACATTGCCTTTTTGA

Molecular target: T1, FOXP1 (recombinant, pET28a)
Assay: EMSA; Nondenaturing PAGE EMSA, HRP-streptavidin detection; buffer, salt, pH and temperature not stated
Conditions: protein: recombinant; tags: His tag (implied by pET28a and Ni-NTA); chain copies: 2; blunt

Binder | binding result
B1 | binds
B2 | binds
